Assays:
[1] = target: T1, prefusion-stabilized MERS-CoV S ectodomain trimer (MERS-CoV, isolate not shown; stand-in …, UniProt K9N5Q8, stabilised); experiment: cell-based or functional assay
[2] = target: T2, prefusion-stabilized SARS-CoV S ectodomain trimer (SARS-CoV, isolate , UniProt P59594, stabilised); experiment: cell-based or functional assay
[3] = target: T1, prefusion-stabilized MERS-CoV S …; experiment: SPR; S2P6 Fab fragment and S glycoproteins (fig. S1, G and H); conditions: both partners purified
[4] = target: T2, prefusion-stabilized SARS-CoV S …; experiment: as above; conditions: both partners purified

Binder	neutralization of VSV pseudotyped with MERS-CoV S, IC50 [1] [µg/mL]	neutralization of VSV pseudotyped with SARS-CoV S, IC50 [2] [µg/mL]	Kd [3] [nM]	Kd [4] [nM]
S2P6 monoclonal antibody (antibody, V domains shown, also called S2P6 mAb; S2P6 IgG; copies: 2 + 2) VH: EVQLVQSGAEVKKPGASVKVSCKASGYTFTSQYMHWVRQAPGQGLEWIGIINPSGVHTSYAQKFQGRVTLTRDTSTSTLYMELSSLRSEDTAVYYCARGSPKGAFDYWGQGTLVTVSS VL: not shown	17.1	2.4		
S2P6 Fab fragment (Fab, V domains shown) VH: EVQLVQSGAEVKKPGASVKVSCKASGYTFTSQYMHWVRQAPGQGLEWIGIINPSGVHTSYAQKFQGRVTLTRDTSTSTLYMELSSLRSEDTAVYYCARGSPKGAFDYWGQGTLVTVSS VL: not shown			12	7
